Laboratory results reported in patent publication US8043804 (TRUSTEES OF COLUMBIA UNIVERSITY IN THE CITY OF NEW YORK, dated 2011).

T1: SIRT1 (Silencing mating type information regulator 2 homolog) (human, UniProt Q96EB6 2-747)
T1 construct: Endogenous protein of HeLa and U2OS cells, or expressed from a vector without a stated tag in H1299 cells; also called endogenous SIRT1; Sir2
T1 sequence (looked up): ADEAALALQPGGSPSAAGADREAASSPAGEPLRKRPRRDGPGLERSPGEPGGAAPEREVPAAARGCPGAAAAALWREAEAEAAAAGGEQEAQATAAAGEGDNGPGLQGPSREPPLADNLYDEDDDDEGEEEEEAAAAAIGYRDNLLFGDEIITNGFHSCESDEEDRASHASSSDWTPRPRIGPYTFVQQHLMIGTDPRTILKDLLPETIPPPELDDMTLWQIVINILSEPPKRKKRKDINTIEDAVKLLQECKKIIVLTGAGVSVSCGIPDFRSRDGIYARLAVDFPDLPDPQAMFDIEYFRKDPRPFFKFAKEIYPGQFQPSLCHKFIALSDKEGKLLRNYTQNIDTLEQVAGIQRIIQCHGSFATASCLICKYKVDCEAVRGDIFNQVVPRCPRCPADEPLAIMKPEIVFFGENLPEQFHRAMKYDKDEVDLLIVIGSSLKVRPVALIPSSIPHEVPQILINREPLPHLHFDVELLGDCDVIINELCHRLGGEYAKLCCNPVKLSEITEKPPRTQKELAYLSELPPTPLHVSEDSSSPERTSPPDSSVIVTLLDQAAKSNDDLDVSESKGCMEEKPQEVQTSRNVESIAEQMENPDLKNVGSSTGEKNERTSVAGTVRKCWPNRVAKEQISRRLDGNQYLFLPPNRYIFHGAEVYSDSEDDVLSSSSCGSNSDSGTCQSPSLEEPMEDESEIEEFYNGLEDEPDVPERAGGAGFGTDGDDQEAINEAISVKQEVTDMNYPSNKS


Legend:
[1] = molecular target: T2, DBC1 (Deleted in Breast Cancer 1) protein (human, UniProt Q8N163 1-923); assay: M2 immunoprecipitation of Flag-tagged SIRT family members from 293 cells, Western blot (FIG. 2d)
T2 construct: Endogenous protein of HeLa, U2OS and 293 cells (about 140 kDa band), or expressed from a vector without a stated tag in H1299 cells; also called endogenous DBC1
Experimental: (§1) Next, whether SIRT1 binds DBC1 in vitro was tested. […] The N-terminus of DBC1 as the SIRT1 binding domain was identified (FIG. 7). Since the enzymatic core sequence represents the most conserved region of mammalian SIRT protein family, whether DBC1 interacts with other members of this family was determined. Flag-tagged derivatives of the seven human SIRT polypeptides (SIRT1-7) were each expressed in 293 cells and extracts of the transfected cells were immunoprecipitated with the α-Flag antibody. […] Although similar expression levels for all seven Flag-SIRT polypeptides were detected, none of the other SIRT proteins (SIRT2, SIRT3, SIRT4, SIRT5, SIRT6 and SIRT7) were able to co-immunoprecipitate DBC1 (lanes 3-8, FIG. 2d).

[2] = molecular target: T1, SIRT1 (Silencing mating type …); assay: affinity-purified SIRT1 complexes from HeLa extracts, Western blot
Experimental: Figure 1: FIG. 1. Identification of DBC1 as a major component of the SIRT1 complexes in human cells. (a) Colloidal-blue staining of affinity-purified SIRT1 complexes from HeLa extracts with the α-SIRT1 antibody column (lane 2) and a control elute from the same extract with a control antibody column (lane 3). Specific SIRT1 interacting proteins were analyzed by mass spectrometry. (b) Western Blot of input (lane 1), control IP (lane 2) and α-SIRT1 antibody IP (lane 3) for the known SIRT1 interacting protein 14-3-3σ (lower panel) and SIRT1 (upper panel) to verify specificity of the analyzed SIRT1 complex. (c) Schematic representation of the DBC1 protein.

[3] = molecular target: T3, ^35S-labeled in vitro-translated DBC1 (human, UniProt Q8N163 1-923, labelled by incorporation of ^35S-Methionine); assay: GST pull-down, autoradiography
T3 construct: also called ^35S-DBC1; pCIN4-DBC1 product
Experimental: as §1

[4] = molecular target: T2, DBC1 (Deleted in Breast Cancer 1) …; assay: anti-Flag immunoprecipitation from transfected 293 cells, Western blot for endogenous DBC1
Experimental: as §1

T2 sequence (Q8N163 whole entry): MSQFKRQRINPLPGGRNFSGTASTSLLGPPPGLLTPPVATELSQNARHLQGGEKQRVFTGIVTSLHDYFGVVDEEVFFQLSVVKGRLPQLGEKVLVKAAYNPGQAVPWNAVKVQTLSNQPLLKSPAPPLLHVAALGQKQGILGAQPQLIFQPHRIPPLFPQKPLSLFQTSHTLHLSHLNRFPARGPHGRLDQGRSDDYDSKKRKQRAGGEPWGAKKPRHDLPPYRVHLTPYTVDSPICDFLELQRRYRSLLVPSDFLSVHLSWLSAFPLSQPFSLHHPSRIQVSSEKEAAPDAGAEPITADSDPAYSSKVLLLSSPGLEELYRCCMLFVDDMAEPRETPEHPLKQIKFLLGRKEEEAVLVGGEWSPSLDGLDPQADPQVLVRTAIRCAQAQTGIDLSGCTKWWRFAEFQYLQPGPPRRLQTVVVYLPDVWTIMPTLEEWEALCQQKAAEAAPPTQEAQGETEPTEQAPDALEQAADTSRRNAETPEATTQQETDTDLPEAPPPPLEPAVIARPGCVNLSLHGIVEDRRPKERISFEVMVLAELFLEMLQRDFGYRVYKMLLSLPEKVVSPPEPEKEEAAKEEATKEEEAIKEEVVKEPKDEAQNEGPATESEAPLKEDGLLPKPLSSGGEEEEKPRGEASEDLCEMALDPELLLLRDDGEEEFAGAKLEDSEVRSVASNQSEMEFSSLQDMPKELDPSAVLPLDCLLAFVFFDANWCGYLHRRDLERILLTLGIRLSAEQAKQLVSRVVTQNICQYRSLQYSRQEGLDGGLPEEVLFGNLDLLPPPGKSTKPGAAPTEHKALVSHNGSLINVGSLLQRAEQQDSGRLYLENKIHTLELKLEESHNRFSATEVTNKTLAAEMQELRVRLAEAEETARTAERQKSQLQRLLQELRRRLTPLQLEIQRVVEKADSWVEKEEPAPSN
T3 sequence (Q8N163 whole entry): as above

Binder	binding result [3]	binding result [4]	other results
Flag-SIRT1 (enzyme, human, UniProt Q96EB6 1-747, looked up, Expressed in 293 or H1299 cells, immunoprecipitated with M2 anti-Flag beads; also called F-SIRT1; Flag-tagged SIRT1; not shown: Flag tag) MADEAALALQPGGSPSAAGADREAASSPAGEPLRKRPRRDGPGLERSPGEPGGAAPEREVPAAARGCPGAAAAALWREAEAEAAAAGGEQEAQATAAAGEGDNGPGLQGPSREPPLADNLYDEDDDDEGEEEEEAAAAAIGYRDNLLFGDEIITNGFHSCESDEEDRASHASSSDWTPRPRIGPYTFVQQHLMIGTDPRTILKDLLPETIPPPELDDMTLWQIVINILSEPPKRKKRKDINTIEDAVKLLQECKKIIVLTGAGVSVSCGIPDFRSRDGIYARLAVDFPDLPDPQAMFDIEYFRKDPRPFFKFAKEIYPGQFQPSLCHKFIALSDKEGKLLRNYTQNIDTLEQVAGIQRIIQCHGSFATASCLICKYKVDCEAVRGDIFNQVVPRCPRCPADEPLAIMKPEIVFFGENLPEQFHRAMKYDKDEVDLLIVIGSSLKVRPVALIPSSIPHEVPQILINREPLPHLHFDVELLGDCDVIINELCHRLGGEYAKLCCNPVKLSEITEKPPRTQKELAYLSELPPTPLHVSEDSSSPERTSPPDSSVIVTLLDQAAKSNDDLDVSESKGCMEEKPQEVQTSRNVESIAEQMENPDLKNVGSSTGEKNERTSVAGTVRKCWPNRVAKEQISRRLDGNQYLFLPPNRYIFHGAEVYSDSEDDVLSSSSCGSNSDSGTCQSPSLEEPMEDESEIEEFYNGLEDEPDVPERAGGAGFGTDGDDQEAINEAISVKQEVTDMNYPSNKS			binding result [1]: binds
14-3-3σ (other, human, UniProt P31947 1-248, looked up) MERASLIQKAKLAEQAERYEDMAAFMKGAVEKGEELSCEERNLLSVAYKNVVGGQRAAWRVLSSIEQKSNEEGSEEKGPEVREYREKVETELQGVCDTVLGLLDSHLIKEAGDAESRVFYLKMKGDYYRYLAEVATGDDKKRIIDSARSAYQEAMDISKKEMPPTNPIRLGLALNFSVFHYEIANSPEEAISLAKTTFDEAMADLHTLSEDSYKDSTLIMQLLRDNLTLWTADNAGEEGGEAPQEPQS			binding result [2]: binds
GST-SIRT1-NT (other, human, UniProt Q96EB6 1-210, looked up, domain: N-terminal; also called N-terminus of SIRT1; N-terminal domain of SIRT1; not shown: glutathione S-transferase (GST) fusion partner) MADEAALALQPGGSPSAAGADREAASSPAGEPLRKRPRRDGPGLERSPGEPGGAAPEREVPAAARGCPGAAAAALWREAEAEAAAAGGEQEAQATAAAGEGDNGPGLQGPSREPPLADNLYDEDDDDEGEEEEEAAAAAIGYRDNLLFGDEIITNGFHSCESDEEDRASHASSSDWTPRPRIGPYTFVQQHLMIGTDPRTILKDLLPETI	no binding		
GST-SIRT1-CT (other, human, UniProt Q96EB6 500-747, looked up, domain: C-terminal; also called C-terminus of SIRT1; C-terminal domain of SIRT1; not shown: glutathione S-transferase (GST) fusion partner) LCCNPVKLSEITEKPPRTQKELAYLSELPPTPLHVSEDSSSPERTSPPDSSVIVTLLDQAAKSNDDLDVSESKGCMEEKPQEVQTSRNVESIAEQMENPDLKNVGSSTGEKNERTSVAGTVRKCWPNRVAKEQISRRLDGNQYLFLPPNRYIFHGAEVYSDSEDDVLSSSSCGSNSDSGTCQSPSLEEPMEDESEIEEFYNGLEDEPDVPERAGGAGFGTDGDDQEAINEAISVKQEVTDMNYPSNKS	no binding		

Second part, led by results:

binding result [3]	binding result [4]	Binder	other results
	no binding	Flag-SIRT2 (enzyme, human, UniProt Q8IXJ6 1-389, looked up, also called F-SIRT2; not shown: Flag tag) MAEPDPSHPLETQAGKVQEAQDSDSDSEGGAAGGEADMDFLRNLFSQTLSLGSQKERLLDELTLEGVARYMQSERCRRVICLVGAGISTSAGIPDFRSPSTGLYDNLEKYHLPYPEAIFEISYFKKHPEPFFALAKELYPGQFKPTICHYFMRLLKDKGLLLRCYTQNIDTLERIAGLEQEDLVEAHGTFYTSHCVSASCRHEYPLSWMKEKIFSEVTPKCEDCQSLVKPDIVFFGESLPARFFSCMQSDFLKVDLLLVMGTSLQVQPFASLISKAPLSTPRLLINKEKAGQSDPFLGMIMGLGGGMDFDSKKAYRDVAWLGECDQGCLALAELLGWKKELEDLVRREHASIDAQSGAGVPNPSTSASPKKSPPPAKDEARTTEREKPQ	
	no binding	Flag-SIRT7 (enzyme, human, UniProt Q9NRC8 1-400, looked up, not shown: Flag tag) MAAGGLSRSERKAAERVRRLREEQQRERLRQVSRILRKAAAERSAEEGRLLAESADLVTELQGRSRRREGLKRRQEEVCDDPEELRGKVRELASAVRNAKYLVVYTGAGISTAASIPDYRGPNGVWTLLQKGRSVSAADLSEAEPTLTHMSITRLHEQKLVQHVVSQNCDGLHLRSGLPRTAISELHGNMYIEVCTSCVPNREYVRVFDVTERTALHRHQTGRTCHKCGTQLRDTIVHFGERGTLGQPLNWEAATEAASRADTILCLGSSLKVLKKYPRLWCMTKPPSRRPKLYIVNLQWTPKDDWAALKLHGKCDDVMRLLMAELGLEIPAYSRWQDPIFSLATPLRAGEEGSHSRKSLCRSREEAPPGDRGAPLSSAPILGGWFGRGCTKRTKRKKVT	
